Results from article PMC9814641, “Microbial rhodoquinone biosynthesis proceeds via an atypical RquA-catalyzed amino transfer from S-adenosyl-L-methionine to ubiquinone” (Communications Chemistry, 2022).

Assays:
[1] = target: T1, RquA (Rhodospirillum rubrum, UniProt Q2RPC3); assay: intrinsic tryptophan fluorescence titration, one-site fit; also Michaelis-Menten kinetics (apparent Km […] with UQ3 and Mn2+); format: binding
T1 construct: gene Rru_A3227

[2] = target: RquA (TEV-cleaved from MBP-RquA) (R. rubrum); assay: SEC; calibrated HiLoad 16/60 Superdex 200; TRIS (20 mM), NaCl (200 mM), TCEP (1 mM), 0.1% Brij-35, pH 8.0; mass estimated from the elution volume
[3] = substrate: COC1=C(OC)C(=O)C(C/C=C(\C)CC/C=C(\C)CCC=C(C)C)=C(C)C1=O; assay: LC-MS enzyme assay of conversion to RQ3, Michaelis-Menten kinetics (apparent Km); format: biochemical, Rhodospirillum rubrum; details: Mn2+; SAM (co-substrate)

Molecule `C[S+](CC[C@H](N)C(=O)[O-])C[C@H]1O[C@@H](n2cnc3c(N)ncnc32)[C@H](O)[C@@H]1O` (stereo partly drawn) [compound 3, S-adenosyl-L-methionine] has a Kd [1] of 2220 ± 1020 µM.

For “RquA (TEV-cleaved from MBP-RquA) (enzyme)”, the stoichiometry N [2] was 2.

B1: RquA (Rhodospirillum rubrum ATCC 11170) (protein)
chain: MTKHQGAVRPVGPEESAFPASQSFSETGPVVADPIKPLPAYLQETYTWAYLDPRNVEWLDHEIVVNAILWGNMTRLMATAFKEFEPGQEVLQPACVYGPFSRHLAERLGPEGYLEVHDVAPVQIHHTRRKVEGLPQVTLRRADAADPLDRDFDGVCCFFLLHEVPDHVKSKIVDNMLSAVRPGGKVVFVDYHRYAALHPLRPIMAFVFRTLEPFAWGLCTREISDFASDAGSFTWRKETYFGGLYQKVVAERRA
notes: MBP-RquA
For B1, the Km [3] was 0.155 ± 0.028 µM.
